Here are results for 4 substances from paper PMC4948710.

The target of assay [1] is Nematostella vectensis β-catenin, full length (Nematostella vectensis). The experiment in a line: ITC. (In ITC the heat of successive injections is recorded.)
The target in assay [2] is F-actin polymerised from chicken muscle G-actin (chicken) (UniProt P68139). The experiment in a line: co-sedimentation.

Where only a bound is given, the exact number is not on record here.

Regarding “Nematostella vectensis Cadherin-1 cytoplasmic region (domain or fragment)”, the Kd – broadly, the constant that tells how readily two partners part at equilibrium – in assay [1] is 7.9 nM. As to “Nematostella vectensis Cadherin-2 cytoplasmic region (domain or fragment)”, the Kd in assay [1] turned out to be 1.3 nM. Regarding “Nematostella vectensis α-catenin lacking the insert (residues 638-1,021 deleted) (domain or fragment)”, the dissociation constant (Kd) in assay [2] is > 12000 nM. With “Nematostella vectensis α-catenin, full length (natural protein)”, the equilibrium dissociation constant (Kd) in assay [2] was 800 nM. This lies in the sub-micromolar range.
